For 120 sequences, switch fluorescence ratio results are on record in the supplement of paper PMC10126150.

± gives the standard deviation of the averaged measurements.

In this series the test system is ATP. In words: switch fluorescence ratio, 500 uM ATP over buffer (Cy3 cluster intensity, sum of 5 cycles each) (fold (ratio)); higher = stronger signal-on switching upon ATP binding; sequences stand for … in TCGTCGGCAGCGTCAGATGTGTATAAGAGACAGTTTTTTTTTTTTTTTTTTTTTTTTT…TC. The conditions noted are these: aptamer strand: ATP DNA aptamer (quencher-CACCTGGGGGAGTATTGCGGAGGAAGG + anchor), 100 nM annealed; ATP concentration: 500 uM. Summed up:
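Five buffer/ATP imaging cycles were run on Cy3-labelled switching-strand clusters on a modified Illumina MiSeq flow-cell, with NaOH stripping and re-annealing between cycles. In each cycle, clusters annealed to 100 nM quencher-labelled ATP aptamer were imaged in selection buffer, then after 15 min with 500 uM ATP at 22 °C. Per cluster, the fluorescence ratio is summed target-cycle over summed buffer-cycle Cy3 intensity, averaged per switch-domain sequence. Only clusters within 100-1000 RFU were kept.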
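Further: ATP exposure 15 min at 22 °C before imaging.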

As to GGATTAAGGG, the switch fluorescence ratio amounted to 0.993 ± 0.024.

In the case of GGATTAATCT, the switch fluorescence ratio amounted to 0.998 ± 0.019.

Regarding GGATTACGAC, the switch fluorescence ratio came out at 1.12 ± 0.15.

Consider GGATTACGGT, for which the switch fluorescence ratio was 1.01 ± 0.03.

In the case of GGATTAGCGA, the switch fluorescence ratio was 0.975 ± 0.025.

With GGATTAGGTC, the switch fluorescence ratio worked out at 1.02 ± 0.019.

As for GGATTAGTTT, the switch fluorescence ratio was found to be 0.994 ± 0.029.

Take GGATTATGGA: the switch fluorescence ratio stood at 0.971 ± 0.025.

On to GGATTATTTT, for which the switch fluorescence ratio came out at 1 ± 0.012.

Consider GGATTCAGGG, for which the switch fluorescence ratio was found to be 1.01 ± 0.018.

On to GGATTGAAGA, for which the switch fluorescence ratio came to 0.969 ± 0.091.

In the case of GGATTGGAGT, the switch fluorescence ratio was determined as 0.977 ± 0.02.

Regarding GGATTGGGGG, the switch fluorescence ratio is 0.995 ± 0.02.

With GGATTGGGTG, the switch fluorescence ratio was determined as 1.04 ± 0.09.

For the sequence GGATTGGTGG, the switch fluorescence ratio is 1.01 ± 0.024.

Take GGATTTACGG: the switch fluorescence ratio was found to be 1.001 ± 0.0028.

For GGATTTAGTA, the switch fluorescence ratio was 1.01 ± 0.034.

As to GGATTTATGA, the switch fluorescence ratio came to 1.002 ± 0.0092.

On to GGATTTATGT, for which the switch fluorescence ratio is 0.94526 ± 0.00032.

With GGATTTGCCT, the switch fluorescence ratio amounted to 0.997 ± 0.041.

Turning to GGATTTGGCG, the switch fluorescence ratio amounted to 0.985 ± 0.029.

As to GGATTTGTGT, the switch fluorescence ratio amounted to 1.01 ± 0.034.

Turning to GGATTTTATA, the switch fluorescence ratio came out at 1.01 ± 0.024.

Turning to GGATTTTTTC, the switch fluorescence ratio amounted to 1.02 ± 0.037.

Consider GGCAAAGGTA, for which the switch fluorescence ratio is 0.968 ± 0.014.

For GGCAATAATA, the switch fluorescence ratio was found to be 1.09 ± 0.035.

With GGCACAGATT, the switch fluorescence ratio was 1.01 ± 0.019.

Turning to GGCACCACCT, the switch fluorescence ratio amounted to 1.157 ± 0.0082.

GGCACGGGGC: the switch fluorescence ratio amounted to 1.02 ± 0.024.

Regarding GGCACTAAGT, the switch fluorescence ratio was 1.04 ± 0.036.

Consider GGCAGAGTTC, for which the switch fluorescence ratio came to 0.991 ± 0.013.

For GGCAGCCGGG, the switch fluorescence ratio came out at 0.97 ± 0.018.

As to GGCAGCCGGT, the switch fluorescence ratio is 1 ± 0.036.

GGCAGCTGGG: the switch fluorescence ratio is 0.946 ± 0.023.

Take GGCAGCTGGT: the switch fluorescence ratio was 1.01 ± 0.03.

For the sequence GGCAGTAGTG, the switch fluorescence ratio stood at 1.002 ± 0.0037.

Regarding GGCATACCGG, the switch fluorescence ratio is 0.936 ± 0.019.

Turning to GGCATAGAGG, the switch fluorescence ratio was 1.03 ± 0.0032.

For GGCATATGCT, the switch fluorescence ratio stood at 1.02 ± 0.025.

As for GGCATCAGGG, the switch fluorescence ratio worked out at 1.02 ± 0.013.

Regarding GGCATCGGAC, the switch fluorescence ratio is 1.04 ± 0.015.

As for GGCATGCCGG, the switch fluorescence ratio was found to be 1.014 ± 0.0089.

Consider GGCATGTTTG, for which the switch fluorescence ratio was 0.9917 ± 0.0027.

As to GGCATTATTT, the switch fluorescence ratio stood at 1.02 ± 0.023.

Turning to GGCATTCATT, the switch fluorescence ratio was determined as 0.989 ± 0.033.

Consider GGCATTGGCA, for which the switch fluorescence ratio was found to be 0.995 ± 0.041.

Turning to GGCATTTGGT, the switch fluorescence ratio was 0.993 ± 0.025.

As to GGCATTTGTA, the switch fluorescence ratio is 1 ± 0.02.

Regarding GGCCAGCGGA, the switch fluorescence ratio is 1.01 ± 0.024.

As for GGCCATACGT, the switch fluorescence ratio is 1.09 ± 0.094.

Consider GGCCCAGGAG, for which the switch fluorescence ratio is 1.01 ± 0.017.

With GGCCCAGTAG, the switch fluorescence ratio is 1.14 ± 0.062.

Take GGCCCCGGGG: the switch fluorescence ratio worked out at 1.11 ± 0.069.

For the sequence GGCCGATTGT, the switch fluorescence ratio came to 0.962 ± 0.024.

In the case of GGCCGGAGAC, the switch fluorescence ratio was 1.15 ± 0.041.

As to GGCCGGATGG, the switch fluorescence ratio came out at 0.991 ± 0.011.

Turning to GGCCGGCGTG, the switch fluorescence ratio is 0.969 ± 0.031.

For the sequence GGCCGGTGTA, the switch fluorescence ratio worked out at 1.03 ± 0.013.

For the sequence GGCCGTTTTC, the switch fluorescence ratio stood at 1.01 ± 0.00017.

For the sequence GGCCTAAATT, the switch fluorescence ratio stood at 0.989 ± 0.031.

As for GGCCTAGTTT, the switch fluorescence ratio amounted to 0.9799 ± 0.0073.

For the sequence GGCCTATCAC, the switch fluorescence ratio was determined as 1.016 ± 0.0078.

GGCCTATTCC: the switch fluorescence ratio is 1.04 ± 0.011.

As for GGCCTCATGC, the switch fluorescence ratio amounted to 1.02 ± 0.017.

Regarding GGCCTCGGGG, the switch fluorescence ratio amounted to 1.01 ± 0.05.

For GGCCTCTTGG, the switch fluorescence ratio was determined as 1 ± 0.011.

As for GGCGAAAGAG, the switch fluorescence ratio stood at 1.02 ± 0.049.

GGCGACGGGG: the switch fluorescence ratio stood at 1 ± 0.02.

For GGCGACTAAA, the switch fluorescence ratio was found to be 1.07 ± 0.057.

Consider GGCGATCATA, for which the switch fluorescence ratio stood at 0.984 ± 0.024.

With GGCGATTTTT, the switch fluorescence ratio is 1.013 ± 0.0022.

For GGCGCAATTG, the switch fluorescence ratio came to 2.04 ± 0.23.

As to GGCGCGAGAG, the switch fluorescence ratio amounted to 1.032 ± 0.0092.

Take GGCGCGCATT: the switch fluorescence ratio was 1.02 ± 0.018.

For the sequence GGCGCGGGGA, the switch fluorescence ratio was found to be 1.02 ± 0.045.

As to GGCGCTCACA, the switch fluorescence ratio came out at 1.04 ± 0.028.

Regarding GGCGCTTTGT, the switch fluorescence ratio was 0.979 ± 0.02.

As for GGCGGCGGGA, the switch fluorescence ratio is 0.998 ± 0.027.

GGCGGCGTCT: the switch fluorescence ratio came out at 0.998 ± 0.036.

Regarding GGCGGCTACG, the switch fluorescence ratio was 1.003 ± 0.0035.

With GGCGGGGACG, the switch fluorescence ratio is 0.999 ± 0.022.

Regarding GGCGGGGGGC, the switch fluorescence ratio worked out at 0.986 ± 0.026.

Regarding GGCGGGTATG, the switch fluorescence ratio came out at 1.0223 ± 0.00097.

With GGCGGTACGG, the switch fluorescence ratio is 1.01 ± 0.0066.

As to GGCGGTGGCG, the switch fluorescence ratio amounted to 0.994 ± 0.1.

Consider GGCGGTGGGT, for which the switch fluorescence ratio was found to be 0.999 ± 0.038.

On to GGCGGTTTGA, for which the switch fluorescence ratio amounted to 0.969 ± 0.014.

For the sequence GGCGTAATTG, the switch fluorescence ratio stood at 1 ± 0.032.

Take GGCGTAGGGG: the switch fluorescence ratio was found to be 1.02 ± 0.038.

As to GGCGTCGTAT, the switch fluorescence ratio came to 0.9961 ± 0.0015.

Regarding GGCGTGGGGG, the switch fluorescence ratio is 1.051 ± 0.01.

For GGCGTGTCAG, the switch fluorescence ratio stood at 0.951 ± 0.039.

With GGCGTTTGCT, the switch fluorescence ratio was found to be 0.9827 ± 0.0086.

Regarding GGCTAAGAGT, the switch fluorescence ratio came to 0.991 ± 0.02.

GGCTACGGAA: the switch fluorescence ratio amounted to 2.32 ± 0.022.

On to GGCTACGGCG, for which the switch fluorescence ratio is 0.993 ± 0.016.

As to GGCTACTTTA, the switch fluorescence ratio came to 1.07 ± 0.039.

For GGCTAGAGCT, the switch fluorescence ratio came to 0.982 ± 0.032.

With GGCTATCAAA, the switch fluorescence ratio amounted to 1.01 ± 0.018.

GGCTCATTGG: the switch fluorescence ratio stood at 0.969 ± 0.025.

Take GGCTCGGGAC: the switch fluorescence ratio came out at 1.01 ± 0.039.

Take GGCTCGTAGG: the switch fluorescence ratio worked out at 1 ± 0.024.

As to GGCTGCACGG, the switch fluorescence ratio was determined as 1.013 ± 0.01.

Turning to GGCTGCAGCT, the switch fluorescence ratio came out at 0.992 ± 0.016.

On to GGCTGCCAGT, for which the switch fluorescence ratio was found to be 0.9909 ± 0.0016.

As for GGCTGGATCT, the switch fluorescence ratio was 0.975 ± 0.027.

As for GGCTGGCACA, the switch fluorescence ratio came out at 1.002 ± 0.0085.

Turning to GGCTGGCAGC, the switch fluorescence ratio is 1 ± 0.016.

Consider GGCTGGCAGT, for which the switch fluorescence ratio was 0.988 ± 0.015.

As for GGCTGGCGGG, the switch fluorescence ratio is 0.99 ± 0.044.

GGCTGGGGGA: the switch fluorescence ratio is 1.01 ± 0.024.

Regarding GGCTGGGTTA, the switch fluorescence ratio came to 1 ± 0.026.

Regarding GGCTGTACAC, the switch fluorescence ratio was found to be 1.0831 ± 0.001.

Take GGCTGTGAAC: the switch fluorescence ratio was determined as 1.02 ± 0.023.

For the sequence GGCTGTTGGG, the switch fluorescence ratio worked out at 0.978 ± 0.012.

GGCTTAAGGT: the switch fluorescence ratio was 1.02 ± 0.064.

Turning to GGCTTACTAT, the switch fluorescence ratio is 1.01 ± 0.02.

For GGCTTAGAAT, the switch fluorescence ratio worked out at 0.97374 ± 0.00014.

Take GGCTTAGGTG: the switch fluorescence ratio was 1.26 ± 0.06.

On to GGCTTATGTG, for which the switch fluorescence ratio came out at 1.02 ± 0.051.
